Laboratory results published in patent US7098001B2, “Polypeptides having dipeptidyl aminopeptidase activity and nucleic acids encoding same” (Novozymes, Inc., priority 1997, dated 2006).

What was measured:
[1] = pH optimum / pH-activity profile of dipeptidyl aminopeptidase I with Ala-Pro-pNA; assay type: biochemical; conditions: for Average Activty: 2 mg/ml Ala-Pro-pNA, ambient temperature, 5 minutes; for Avg. Activity-Background: corrected for autohydrolysis of Ala-Pro-pNA
Method: The Ala-Pro-pNA substrate was prepared by dissolving 100 mg of Ala-Pro-pNA in 1 ml of DMSO and adding 20 μl of the Ala-Pro-pNA-DMSO solution to 980 μl of the universal buffer at the various pH values at ambient temperature. The assay was initiated by adding a 10 μl aliquot of the dipeptidyl aminopeptidase I diluted 20-fold in water to 200 μl of 2 mg/ml Ala-Pro-pNA at the various pH values. The absorbance at 405 nm was monitored for 5 minutes. Autohydrolysis of the substrate as a control was determined by adding 10 μl of water to 200 μl of 2 mg/ml Ala-Pro-pNA at the various pH values.

[2] = activity of the purified enzymes on Ala-Pro-pNA; assay type: biochemical; conditions: purified enzyme; extinction coefficient of 10000
Method: A polypeptide of the present invention is added to the proteinaceous substrate in an effective amount conventionally employed in protein hydrolysis processes, preferably in the range of from about 0.1 to about 100,000 dipeptidyl aminopeptidase units (DPAPU) per 100 g of protein, and more preferably in the range of from about 1 to about 10,000 dipeptidyl aminopeptidase units per 100 g of protein. As defined herein, one dipeptidyl aminopeptidase Unit (DPAPU) is the amount of enyzme needed to release 1 micromole of p-nitroanilide per minute from Ala-Pro-p-nitroanilide (Sigma Chemical Co., St. Louis Mo.) under specified conditions.
The sample was then loaded onto a column (XK-26) containing 60 ml of Q-Sepharose Big Beads, which had been pre-equilibrated with 400 ml of 20 mM sodium phosphate pH 7.0 buffer. The column was washed until baseline was reached. […] In a 96 well microtiter plate, 100 μl of the substrate solution was added to 100 μl of Aspergillus oryzae dipeptidyl aminopeptidase I (100 fold diluted in 50 mM sodium phosphate buffer pH 7.5) and the increase in absorbance at 405 nm was measured for 4 minutes using a SpectroMax 340 plate reader (Molecular Devices, Sunnyvale, Calif.). […]
The purified aminopeptidase I was determined to have an activity of 26.822 LAPUs/ml for Leu-pNA using an extinction coefficient of 10,000 for para-nitroaniline at 405 nm. […]

[3] = synergism of aminopeptidase I and dipeptidyl aminopeptidase I on Ala-Phe-Pro-pNA; assay type: biochemical; conditions: 100-fold diluted enzyme alone, over 10 minutes
Method: The substrate was prepared by dissolving 2 mg of Ala-Phe-Pro-pNA (Bachem, Torrance, Calif.) in 20 μl of DMSO. Then, 980 μl of 50 mM sodium phosphate buffer pH 7.5 and 100 μl of ethanol were added. In a 96 well microtiter plate, 100 μl of the Ala-Phe-Pro-pNA solution was added to 100 μl of 100-fold diluted aminopeptidase I (Example 12); 100 μl of the Ala-Phe-Pro-pNA solution was added to 100 μl of 100-fold diluted dipeptidyl aminopeptidase I (Example 11); and 100 μl of the Ala-Phe-Pro-pNA solution was added to a mixture of 50 μl of 100-fold diluted aminopeptidase I and 50 μl of 100-fold diluted dipeptidyl aminopeptidase I. The absorbance at 405 nm was measured for 10 minutes.

[4] = temperature stability of dipeptidyl aminopeptidase I; assay type: physicochemical; conditions: for Percent activity relative to 37iC.: 20 minutes, pH 7.5, no substrate, assayed with Ala-Pro-pNA
Method: The temperature stability of the dipeptidyl aminopeptidase I was determined using the following protocol: 490 μl of 50 mM sodium phosphate buffer pH 7.5 was preincubated at 37 ? , 45 ? , 55 ? , 60 ? , 65 ? , 70 ? , and 75 ? C for 30 minutes in a 1.7 ml Eppendorf tube. Then 10 μl of purified dipeptidyl aminopeptidase I was added and the sample was then incubated for an additional 20 minutes. The samples were then placed on ice. Once the incubations were completed for all the temperatures, the samples were then assayed for activity using Ala-Pro-pNA as substrate.
The assay was performed by mixing 30 μl of the incubation mixtures for the various temperatures with 200 μl of 2 mg/ml Ala-Pro-pNA in 50 mM sodium phosphate pH 7.5 buffer) at ambient temperature. The absorbance at 405 nm was monitored for 5 minutes.

pH of optimal activity ([1]; Ala-Pro-pNA as substrate): ~8.7
pH range over which activity toward Ala-Pro-pNA was possessed ([1]; measured pH range): 4.35 to 9.83
Average Activty ([1]; pH 4.35): 8.75 mOD/min
Avg. Activity-Background ([1]; pH 4.35): 8.75 mOD/min
Relative Activty ([1]; pH 4.35, relative to pH 8.71): 0.023
Average Activty ([1]; pH 4.87): 32.5 mOD/min
Avg. Activity-Background ([1]; pH 4.87): 32.5 mOD/min
Relative Activty ([1]; pH 4.87, relative to pH 8.71): 0.088
Average Activty ([1]; pH 5.36): 75.75 mOD/min
Avg. Activity-Background ([1]; pH 5.36): 75.75 mOD/min
Relative Activty ([1]; pH 5.36, relative to pH 8.71): 0.20
Average Activty ([1]; pH 5.86): 113.8 mOD/min
Avg. Activity-Background ([1]; pH 5.86): 113.8 mOD/min
Relative Activty ([1]; pH 5.86, relative to pH 8.71): 0.307
Average Activty ([1]; pH 6.38): 135.48 mOD/min
Avg. Activity-Background ([1]; pH 6.38): 135.48 mOD/min
Relative Activty ([1]; pH 6.38, relative to pH 8.71): 0.365
Average Activty ([1]; pH 6.85): 168.45 mOD/min
Avg. Activity-Background ([1]; pH 6.85): 166.45 mOD/min
Relative Activty ([1]; pH 6.85, relative to pH 8.71): 0.45
Average Activty ([1]; pH 7.2): 188.86 mOD/min
Avg. Activity-Background ([1]; pH 7.2): 186.86 mOD/min
Relative Activty ([1]; pH 7.2, relative to pH 8.71): 0.503
Average Activty ([1]; pH 7.51): 230.97 mOD/min
Avg. Activity-Background ([1]; pH 7.51): 227.97 mOD/min
Relative Activty ([1]; pH 7.51, relative to pH 8.71): 0.615
Average Activty ([1]; pH 7.97): 308.52 mOD/min
Avg. Activity-Background ([1]; pH 7.97): 302.72 mOD/min
Relative Activty ([1]; pH 7.97, relative to pH 8.71): 0.817
Relative Activty ([1]; pH 8.71): 1
Average Activty ([1]; pH 8.71): 383.15 mOD/min
Avg. Activity-Background ([1]; pH 8.71): 370.65 mOD/min
Average Activty ([1]; pH 9.32): 247.68 mOD/min
Avg. Activity-Background ([1]; pH 9.32): 217.88 mOD/min
Relative Activty ([1]; pH 9.32, relative to pH 8.71): 0.588
Average Activty ([1]; pH 9.83): 171 mOD/min
Avg. Activity-Background ([1]; pH 9.83): 97 mOD/min
Relative Activty ([1]; pH 9.83, relative to pH 8.71): 0.261
activity for Ala-Pro-pNA [2]: 11.54 DPAPU/ml
activity on Ala-Phe-Pro-pNA [3]: no activity
B1: dipeptidyl aminopeptidase I: Recombinant Aspergillus oryzae 1568 (ATCC 20386) dipeptidyl aminopeptidase I, 771 amino acids (SEQ ID NO:2), produced in Fusarium and purified (protein, listed as Aspergillus oryzae)
chain: MKYSKLLLLLVSVVQALDVPRKPHAPTGEGSKRLTFNETVVKQAITPTSRSVQWLSGAEDGSYVYAAEDGSLTIENIVTNESRTLIPADKIPTGKEAFNYWIHPDLSSVLWASNHTKQYRHSFFADYYVQDVESLKSVPLMPDQEGDIQYAQWSPVGNTIAFVRENDLYVWDNGTVTRITDDGGPDMFHGVPDWIYEEEILGDRYALWFSPDGEYLAYLSFNETGVPTYTVQYYMDNQEIAPAYPWELKIRYPKVSQTNPTVTLSLLNIASKEVKQAPIDAFESTDLIIGEVAWLTDTHTTVAAKAFNRVQDQQKVVAVDTASNKATVISDRDGTDGWLDNLLSMKYIGPIKPSDKDAYYIDISDHSGWAHLYLFPVSGGEPIPLTKGDWEVTSILSIDQERQLVYYLSTQHHSTERHLYSVSYSTFAVTPLVDDTVAAYWSASFSANSGYYILTYGGPDVPYQELYTTNSTKPLRTITDNAKVLEQIKDYALPNITYFELPLPSGETLNVMQRLPPGFSPDKKYPILFTPYGGPGAQEVTKRWQALNFKAYVASDSELEYVTWTVDNRGTGFKGRKFRSAVTRQLGLLEAEDQIYAAQQAANIPWIDADHIGIWGWSFGGYLTSKVLEKDSGAFTLGVITAPVSDWRFYDSMYTERYMKTLSTNEEGYETSAVRKTDGFKNVEGGFLIQHGTGDDNVHFQNSAALVDLLMGDGVSPEKLHSQWFTDSDHGISYHGGGVFLYKQLARKLYQEKNRQTQVLMHQWTKKDLEE
Percent activity relative to 37iC. ([4]; 37 C): 100%
Percent activity relative to 37iC. ([4]; 45 C): 103%
Percent activity relative to 37iC. ([4]; 55 C): 103%
Percent activity relative to 37iC. ([4]; 65 C): 92.5%
Percent activity relative to 37iC. ([4]; 70 C): 37.7%
Percent activity relative to 37iC. ([4]; 75 C): 0.7%
activity retained ([4]; after a 20 minute incubation at 65 C, pH 7.5): 90%
